These results are taken from article PMC5548806.

Test [1] addresses CU44 HA ectodomain double mutant F88E/V91W of HA2 fused to the foldon (before the foldon cleavage) (influenza A virus H1N1 A/Thailand/CU44/2006 | not stated). Briefly: SEC; foldon present (pre-thrombin); Superdex 200 in 50 mM Tris (pH 8.0), 100 mM NaCl, 0.5 ml/min; Fig. 1C.
Test [2] addresses CU44 HA ectodomain mutant F88E of HA2 fused to the foldon (pre-thrombin) (influenza A virus H1N1 A/Thailand/CU44/2006 | not stated). The test is described as above.
Test [3] has as its target CU44 HA ectodomain mutant G47E of HA2, foldon removed by thrombin (influenza A virus H1N1 A/Thailand/CU44/2006). In words: SEC; […] (pH 8.0), 100 mM NaCl, 0.5 ml/min; […].
Test [4] addresses CU44 HA ectodomain mutant R75L of HA2, foldon removed by thrombin (influenza A virus H1N1 A/Thailand/CU44/2006). In words: SEC; […] (pH 8.0), 100 mM NaCl, 0.5 ml/min; […].
The target in test [5] is CU44 HA ectodomain mutant R106E of HA2, foldon removed by thrombin (influenza A virus H1N1 A/Thailand/CU44/2006). In words: SEC; […] (pH 8.0), 100 mM NaCl, 0.5 ml/min; […].
The target of test [6] is CU44 HA ectodomain mutant S199F of HA1, foldon removed by thrombin (influenza A virus H1N1 A/Thailand/CU44/2006). Briefly: SEC; […] (pH 8.0), 100 mM NaCl, 0.5 ml/min; […].
Test [7] concerns the target CU44 HA ectodomain mutant V91W of HA2 fused to the foldon (pre-thrombin) (influenza A virus H1N1 A/Thailand/CU44/2006 | not stated). Briefly: SEC; foldon present (pre-thrombin); Superdex 200 in 50 mM Tris (pH 8.0), 100 mM NaCl, 0.5 ml/min; Fig. 1C.
Test [8] addresses CU44 wild-type HA ectodomain (A/Thailand/CU44/2006), foldon removed by thrombin (influenza A virus H1N1 A/Thailand/CU44/2006). In words: SEC; […] (pH 8.0), 100 mM NaCl, 0.5 ml/min; […].

For “CU44 HA ectodomain double mutant F88E/V91W of HA2 fused to the foldon (before the foldon cleavage)”, the stoichiometry N in test [1] was 3. Take “CU44 HA ectodomain mutant F88E of HA2 fused to the foldon (pre-thrombin)”: the stoichiometry N in test [2] was 3. With “CU44 HA ectodomain mutant G47E of HA2, foldon removed by thrombin (domain or fragment)”, the stoichiometry N in test [3] amounted to 3. “CU44 HA ectodomain mutant R75L of HA2, foldon removed by thrombin (domain or fragment)” gave a stoichiometry N in test [4] of 3. “CU44 HA ectodomain mutant R106E of HA2, foldon removed by thrombin (domain or fragment)”: the stoichiometry N in test [5] was 3. With “CU44 HA ectodomain mutant S199F of HA1, foldon removed by thrombin (domain or fragment)”, the stoichiometry N in test [6] stood at 3. The substance “CU44 HA ectodomain mutant V91W of HA2 fused to the foldon (pre-thrombin)” came in with a stoichiometry N in test [7] of 3. Turning to “CU44 wild-type HA ectodomain (A/Thailand/CU44/2006), foldon removed by thrombin (domain or fragment)”, the stoichiometry N in test [8] was 3.
